Measured values reported in the supplement of paper PMC6757056.
± gives the standard deviation of the averaged measurements.

B1: library; a variant is named by its letters at N, in order (parent)
chain: GCUGUCACCGGUGUAUUACCCUAGUGGUCGACCGGUCUGAUGAGUCUNNNNNNAGACGAAACAGC

Legend:
hypoxanthine [1] = variants of: B1; experiment: FACS-Seq fitted mean relative fluorescence mCherry/BFP without ligand (log10 relative fluorescence); ligand: hypoxanthine (xanthine aptamer); higher = higher reporter protein expression; conditions: HEK293T, ligand present: no
Procedure, shortened: (§1)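 Fluorescence comes from a normal fit to bin counts, normalized against controls. HEK293T libraries lentivirally given a ribozyme-switch mCherry reporter and an EF1α-BFP marker were enriched, incubated 48 h with or without ligand, and sorted by mCherry/BFP into 6 bins. Bin genomic DNA was PCR-amplified, barcoded and sequenced on MiSeq. The log10(mCherry/BFP) mean was scaled to five spiked-in control ribozymes.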

hypoxanthine [2] = variants of: B1; experiment: normalized RNA/DNA level with ligand (relative to sTRSVctl = 100) (log10 (% of sTRSVctl)); ligand: hypoxanthine (xanthine aptamer); higher = less ribozyme self-cleavage, higher mRNA level; conditions: ligand concentration (+) RNA-Seq: 5 mM, HEK293T, reporter: mCherry (pCS4076), ligand present: yes
Procedure, shortened: (§2)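 Total RNA, extracted with EDTA 72 h after HEK293T cells were transfected with 4 µg per 6-well well of reporter-linked ribozyme switch library plasmids, was reverse-transcribed, amplified, barcoded and sequenced. Ligand, if used, was added 1 h before transfection. RNA level was derived from RNA reads divided by DNA reads and normalized to a spiked-in non-cleaving sequence or to the top sequences. This was multiplied by 100 and log10-transformed, with the top set of 25 sequences and a ≥100 DNA read minimum.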

hypoxanthine [3] = variants of: B1; experiment: normalized RNA/DNA level without ligand (relative to sTRSVctl = 100) (log10 (% of sTRSVctl)); ligand: hypoxanthine (xanthine aptamer); higher = less ribozyme self-cleavage, higher mRNA level; conditions: HEK293T, reporter: mCherry (pCS4076), ligand present: no
Procedure, shortened: as §2

hypoxanthine [4] = variants of: B1; experiment: FACS-Seq fitted mean relative fluorescence mCherry/BFP with ligand (log10 relative fluorescence); ligand: hypoxanthine (xanthine aptamer); ligand concentration (+) FACS-Seq: 5 mM; higher = higher reporter protein expression; conditions: HEK293T, ligand present: yes
Procedure, shortened: as §1

| Variant | FACS-Seq fitted mean (log10) (hypoxanthine [1]) | normalized RNA/DNA level with ligand (log10) (hypoxanthine [2]) | normalized RNA/DNA level without ligand (log10) (hypoxanthine [3]) | FACS-Seq fitted mean (log10) (hypoxanthine [4]) |
| --- | --- | --- | --- | --- |
| GGAUUG | 0.023 ± 0.012 | 1.857 ± 0.017 | 1.42 ± 0.059 | 0.4602 ± 0.0025 |
| UGCAGG | 0.297 ± 0.033 | 1.8726 ± 0.0012 | 1.39 ± 0.073 | 0.49 ± 0.056 |
| UGCAGU | -0.0358 ± 0.0051 | 1.906 ± 0.016 | 1.434 ± 0.0054 | 0.345 ± 0.15 |
| UGCAGA | 0.169 ± 0.0021 | 1.84 ± 0.032 | 1.43 ± 0.021 | 0.4015 ± 0.00097 |
| UGCAAG | 0.123 ± 0.078 | 1.853 ± 0.0049 | 1.72 ± 0.021 | 0.179 ± 0.031 |
| UGCAAA | 0.613 ± 0.029 | 1.879 ± 0.0083 | 1.787 ± 0.017 | 0.635 ± 0.019 |
| AGAGGA | 0.5707 ± 0.0052 | 1.892 ± 0.016 | 1.6297 ± 0.00023 | 0.701 ± 0.028 |
| AGAGGU | 0.557 ± 0.061 | 1.9 ± 0.035 | 1.52 ± 0.032 | 0.802 ± 0.07 |
| CGCGCC | 0.276 ± 0.055 | 1.93 ± 0.021 | 1.96 ± 0.044 | 0.445 ± 0.033 |
| AGAGUA | 0.5286 ± 0.0017 | 1.892 ± 0.0036 | 1.7 ± 0.034 | 0.675 ± 0.034 |
| UGAGGA | 0.402 ± 0.033 | 1.885 ± 0.015 | 1.5 ± 0.056 | 0.633 ± 0.061 |
| CGAGGU | 0.491 ± 0.077 | 1.96 ± 0.027 | 1.86 ± 0.019 | 0.625 ± 0.12 |
| CGAGGG | -0.0981 ± 0.041 | 1.8 ± 0.077 | 1.3 ± 0.047 | 0.0226 ± 0.19 |
| CGCGGG | 0.374 ± 0.021 | 1.84 ± 0.026 | 1.36 ± 0.036 | 0.72 ± 0.051 |
| UGCUAU | 0.535 ± 0.025 | 1.93 ± 0.023 | 1.88 ± 0.028 | 0.662 ± 0.05 |
| GGAUGC | -0.0215 ± 0.024 | 1.85 ± 0.066 | 1.47 ± 0.075 | 0.483 ± 0.029 |
| GGAUGA | 0.427 ± 0.085 | 1.89 ± 0.035 | 1.618 ± 0.0099 | 0.633 ± 0.029 |
| GGAUGG | 0.131 ± 0.02 | 1.85 ± 0.027 | 1.33 ± 0.034 | 0.472 ± 0.035 |

| Variant | FACS-Seq fitted mean (log10) (hypoxanthine [1]) | normalized RNA/DNA level with ligand (log10) (hypoxanthine [2]) | normalized RNA/DNA level without ligand (log10) (hypoxanthine [3]) | FACS-Seq fitted mean (log10) (hypoxanthine [4]) |
| --- | --- | --- | --- | --- |
| CGCAAA | 0.57 ± 0.013 | 1.897 ± 0.0028 | 1.7 ± 0.022 | 0.491 ± 0.024 |
| AGCUUC | -0.1877 ± 0.00023 | 2.019 ± 0.0075 | 1.927 ± 0.016 | -0.0634 ± 0.021 |
| AGCUUG | 0.486 ± 0.018 | 1.94 ± 0.036 | 1.59 ± 0.018 | 0.64 ± 0.031 |
| GGCCGU | 0.465 ± 0.071 | 1.95 ± 0.034 | 1.945 ± 0.014 | 0.502 ± 0.0071 |
| AGAGAG | 0.482 ± 0.014 | 1.75 ± 0.036 | 1.32 ± 0.069 | 0.443 ± 0.038 |
| AGAGAU | 0.123 ± 0.09 | 1.85 ± 0.052 | 1.731 ± 0.0098 | -0.481 ± 0.049 |
| CGAUUA | 0.312 ± 0.038 | 1.9239 ± 0.001 | 1.64 ± 0.034 | 0.569 ± 0.13 |
| CGAUUC | 0.279 ± 0.048 | 1.976 ± 0.0063 | 1.89 ± 0.02 | 0.313 ± 0.0095 |
| CGAUUU | 0.4582 ± 0.0022 | 1.92 ± 0.089 | 1.847 ± 0.012 | 0.5218 ± 0.0046 |
| AGGACC | 0.421 ± 0.0047 | 1.94 ± 0.042 | 1.88 ± 0.028 | 0.565 ± 0.034 |
| CGCGUA | 0.477 ± 0.0013 | 1.95 ± 0.041 | 1.81 ± 0.067 | 0.659 ± 0.013 |
| AGCAAG | 0.616 ± 0.025 | 1.81 ± 0.024 | 1.45 ± 0.056 | 0.87 ± 0.096 |
| AGCAAC | 0.133 ± 0.046 | 1.91 ± 0.054 | 1.79 ± 0.043 | 0.1066 ± 0.00061 |
| AGCAAU | 0.645 ± 0.018 | 1.9127 ± 0.00078 | 1.8332 ± 0.00014 | 0.608 ± 0.03 |
| CGCUGC | 0.163 ± 0.06 | 1.98 ± 0.096 | 1.95 ± 0.083 | 0.518 ± 0.079 |
| CGCUGA | 0.643 ± 0.033 | 1.9529 ± 0.00012 | 1.89 ± 0.03 | 0.635 ± 0.0074 |
| AGCGGG | 0.579 ± 0.16 | 1.9573 ± 0.00092 | 1.754 ± 0.0053 | 0.732 ± 0.094 |
